The source of these data is PMC10787587.

What all share (experiment): SEC
In general terms: Size exclusion chromatography separates by hydrodynamic size, large species first.

Assay [1] concerns the target human CYP11A1 (side-chain cleavage enzyme), N-terminally truncated and modified, C-terminally His-tagged (human) (UniProt P05108).
In assay [2] the target is human CYP11B1 (11β-hydroxylase), N-terminally truncated and modified, C-terminally His-tagged (human) (UniProt P15538).
Assay [3] has as its target human CYP11B2 (aldosterone generating enzyme), N-terminally truncated and modified, C-terminally His-tagged (human) (UniProt P19099).

Broadly, the stoichiometry N is a count of units in the complex or per binding partner.

“human CYP11A1 (side-chain cleavage enzyme), N-terminally truncated and modified, C-terminally His-tagged (from UniProt P05108 40-521)” yielded a stoichiometry N in assay [1] of 4. With “human CYP11B1 (11β-hydroxylase), N-terminally truncated and modified, C-terminally His-tagged (from UniProt P15538 25-503) (enzyme)”, in assay [2], the stoichiometry N was found to be 4. As for “human CYP11B2 (aldosterone generating enzyme), N-terminally truncated and modified, C-terminally His-tagged (from UniProt P19099 25-503)”, the stoichiometry N in assay [3] is 4.
